Activity calls are given as the source filed them. The calls are words filed in the database; no cut-off is given here.
Columns and labels:
[1] = molecular target: Protease (Human immunodeficiency virus 1) (UniProt Q9YQ12); details: 1 to 180 uM
[2] = tested on: Human immunodeficiency virus type 1 protease (Human immunodeficiency virus 1), Q72874 [L10I,L63P,A71V,G73S,I84V,L90M]; details: 1 to 180 uM
[3] = tested on: O=C1c2cccc([N+](=O)[O-])c2C(=O)N1c1ccc2[nH]c(=S)sc2c1; details: Human immunodeficiency virus 1; 100 uM
[4] = tested on: O=C1c2cccc([N+](=O)[O-])c2C(=O)N1c1ccc2[nH]c(=S)sc2c1; details: Human immunodeficiency virus 1; 100 uM; remark: listed apart in the source
[5] = tested on: O=C1c2cccc([N+](=O)[O-])c2C(=O)N1c1ccc2[nH]c(=S)sc2c1; details: Human immunodeficiency virus 1; 150 uM
[6] = tested on: O=C1c2cccc([N+](=O)[O-])c2C(=O)N1c1ccc2[nH]c(=S)sc2c1; details: Human immunodeficiency virus 1; 150 uM; remark: listed apart in the source
[7] = tested on: O=C1c2cccc([N+](=O)[O-])c2C(=O)N1c1ccc2[nH]c(=S)sc2c1; details: Human immunodeficiency virus 1; 100 uM; remark: listed apart in the source
[8] = tested on: O=C1c2cccc([N+](=O)[O-])c2C(=O)N1c1ccc2[nH]c(=S)sc2c1; details: Human immunodeficiency virus 1; 100 uM; remark: listed apart in the source
[9] = tested on: O=C1c2cccc([N+](=O)[O-])c2C(=O)N1c1ccc2[nH]c(=S)sc2c1; details: Human immunodeficiency virus 1; 150 uM; remark: listed apart in the source
[10] = tested on: O=C1c2cccc([N+](=O)[O-])c2C(=O)N1c1ccc2[nH]c(=S)sc2c1; details: Human immunodeficiency virus 1; 150 uM; remark: listed apart in the source

## O=C1c2cccc([N+](=O)[O-])c2C(=O)N1c1ccc2[nH]c(=S)sc2c1
[1]
  inhibition: inactive
[2]
  inhibition: inactive

## Human immunodeficiency virus type 1 protease (Human immunodeficiency virus 1), Q72874 L10I,L63P,A71V,G73S,I84V,L90M
[3]
  Vmax: 30 nM/s
[4]
  Km: 246 µM
[5]
  Vmax: 30 nM/s
[6]
  Km: 359 µM

## Protease (Human immunodeficiency virus 1), Q9YQ12
[7]
  Vmax: 35 nM/s
[8]
  Km: 144 µM
[9]
  Vmax: 34 nM/s
[10]
  Km: 184 µM

From ChEMBL document CHEMBL3392998
